Test results reported in patent US20210277441A1, “METHOD OF SELECTING A POLYPEPTIDE OF INTEREST” (IMPERIAL COLLEGE INNOVATIONS LIMITED, priority 2018, published 2021).

Experiments:
[1] = system: O=C(O)c1ccccc1[N+](=O)[O-]; test: purified protein, by the assay type; settings: other: cofactor NADH; enzyme 1 uM
O=[N+]([O-])c1ccc(CO)cc1 = test: purified protein, by the assay type; settings: other: cofactor NADH; enzyme 1 uM

Substance	Km [1] [mM]	Km (O=[N+]([O-])c1ccc(CO)cc1) [mM mM]	kcat (O=[N+]([O-])c1ccc(CO)cc1) [min-1 min-1]
Enterobacter cloacae nitroreductase (EntNFSB) variant EntNFSB-s1, S40A/T41I/F124A, SEQ ID NO: 38 (Enterobacter cloacae; F124A/S40A/T41I)	4.05		
Enterobacter cloacae nitroreductase (EntNFSB), wild type, SEQ ID NO: 37 (Enterobacter cloacae)		9.52	8.76
